Experimental data as given in the supplement of paper PMC7877785.
± gives the uncertainty stated by the source.

Test: self-splicing fitness, log relative to wild type (ln ratio); higher = more splicing; Tetrahymena group I intron in knt gene, E. coli kanamycin selection, DiMSum; sequences stand for … in CUCUCU…GGAGGGAAAAGUUAUCAGGCAUGCACCUGGUAGCUAGUCUUUAAACCAAUAGAUUGCAUCGGUUUAAAAGGCAAGACCGUCAAAUUGCGGGAAAGGGGUCAACAGCCGUUCAGUACCAAGUCUCAGGGGAAACUUUGAGAUGGCCUUGCAAAGGGUAUGGUAAUAAGCUGACGGACAUGGUCCUAACCACGCAGCCAAGUCCUAAGUCAACAGAUCUUCUGUUGAUAUGGAUGCAGUUCACAGACUAAAUGUCGGUCGGGGAAGAUGUAUUCUUCUCAUAAGAUAUAGUCGGACCUCUCCUUAAUGGGAGCUAGCGGAUGAAGUGAUGCAACACUGGAGCCGCUGGGAACUAAUUUGUAUGCGAAAGUAUAUUGAUUAGUUUUGGAGUACUCGUGGUCG
Summary of the method: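 Fitness was computed with DiMSum as the error-weighted combination of replicate fold changes, kanamycin versus none, each normalised to wild type. The library randomised all eight intron nucleotides of the P1ex region, with the intron placed in the knt kanamycin-resistance gene on pET-22b(+) in E. coli BL21(DE3). Six replicate transformations were grown overnight at 37°C or 30°C on LB agar with or without 25 μg/mL kanamycin, plus 100 μg/mL carbenicillin, 50 μM IPTG and 0.2% rhamnose. Pooled colonies were amplicon-sequenced on an Illumina HiSeq 2500.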

Sequence	self-splicing fitness (ln) (30 °C)	self-splicing fitness (ln) (37 °C)
AGUAAGCAAUAUUACGAUCG	-0.735 ± 0.17	-0.248 ± 0.19
AGGAAGCAAUAUUACGUGGC		-3.3 ± 0.43
CGACAGCAAUAUUACGGUGG	-1.73 ± 0.097	-0.756 ± 0.1
GGGGAGCAAUAUUACGACCA	-0.254 ± 0.14	0.709 ± 0.23
UUUCAGCAAUAUUACGUUUA	-1.34 ± 0.11	-0.334 ± 0.13
GAGCAGCAAUAUUACGGAUG	-3.85 ± 0.25	-1.73 ± 0.15
UAGCAGCAAUAUUACGUUUA	-1.26 ± 0.067	-0.291 ± 0.078
GUUCAGCAAUAUUACGUGCG	-1.45 ± 0.068	-0.215 ± 0.093
CGCAAGCAAUAUUACGACGG	0.00768 ± 0.061	0.452 ± 0.08
ACCAAGCAAUAUUACGGAGG	-1.63 ± 0.12	-1.8 ± 0.29
UCAAAGCAAUAUUACGAGUG	-0.846 ± 0.048	-0.965 ± 0.067
UUAAAGCAAUAUUACGUCCU	-0.682 ± 0.081	-0.281 ± 0.096
CUUCAGCAAUAUUACGUCGG	-1.85 ± 0.15	-1.79 ± 0.24
AUAAAGCAAUAUUACGUUCA	0.0367 ± 0.069	0.0639 ± 0.1
UUCCAGCAAUAUUACGUUGG	-3.19 ± 0.21	-2.53 ± 0.21
UGCCAGCAAUAUUACGGUCA	-0.926 ± 0.081	-0.0439 ± 0.092
AACAAGCAAUAUUACGGUGC	-3.67 ± 0.16	-2.04 ± 0.12
AAUAAGCAAUAUUACGGGUA	-2.49 ± 0.21	-1.32 ± 0.14
CUGUAGCAAUAUUACGUUUU	-4.23 ± 0.35	-2.23 ± 0.19
ACCUAGCAAUAUUACGUCAC	-4.1 ± 0.18	-1.83 ± 0.2
GUACAGCAAUAUUACGGCAC	-0.68 ± 0.11	0.0875 ± 0.12
AGCCAGCAAUAUUACGGAGG	-3.01 ± 0.14	-1.8 ± 0.26
UGUCAGCAAUAUUACGCGUU	-1.16 ± 0.072	-0.631 ± 0.083
CACAAGCAAUAUUACGAUUC	-3.55 ± 0.16	-0.651 ± 0.11
CACUAGCAAUAUUACGACUU	-2.29 ± 0.15	-0.517 ± 0.12

Sequence	self-splicing fitness (ln) (30 °C)	self-splicing fitness (ln) (37 °C)
GUCGAGCAAUAUUACGGUUC	-2.27 ± 0.14	-1.73 ± 0.17
ACAUAGCAAUAUUACGAAUC	-3.23 ± 0.2	-2.78 ± 0.28
CCGAAGCAAUAUUACGGCAC	-4.15 ± 0.31	-2.37 ± 0.33
AGGCAGCAAUAUUACGGUCC	-1.61 ± 0.15	-1.64 ± 0.26
ACAUAGCAAUAUUACGUCGU	-2.92 ± 0.11	-2.33 ± 0.13
UAUCAGCAAUAUUACGACGU	-1.22 ± 0.094	-0.199 ± 0.11
AAUUAGCAAUAUUACGGCGU	-0.085 ± 0.076	0.168 ± 0.1
CCGUAGCAAUAUUACGGGUU	-3.9 ± 0.17	-1.57 ± 0.16
CCCAAGCAAUAUUACGCACC		-2.31 ± 0.33
GUCCAGCAAUAUUACGGGCA	-2.25 ± 0.21	-1.85 ± 0.18
GGGAAGCAAUAUUACGCAUU	-2.94 ± 0.34	-1.53 ± 0.44
UGAUAGCAAUAUUACGGUGA	-1.46 ± 0.16	-0.637 ± 0.19
UGGCAGCAAUAUUACGCUAG	-1.41 ± 0.077	-0.514 ± 0.11
GUCUAGCAAUAUUACGCUUG	-1.22 ± 0.11	-0.705 ± 0.11
AGAAAGCAAUAUUACGUGGG	-3.69 ± 0.17	-1.3 ± 0.12
UUACAGCAAUAUUACGUACG	-0.291 ± 0.075	0.0876 ± 0.1
GUGAAGCAAUAUUACGGUGA	-0.922 ± 0.11	0.58 ± 0.14
GUAAAGCAAUAUUACGCAAC		-0.263 ± 0.42
GUAUAGCAAUAUUACGUCGG	-3.48 ± 0.26	-1.31 ± 0.22
UUCCAGCAAUAUUACGGAUU	-1.9 ± 0.11	-1.01 ± 0.12
GCUCAGCAAUAUUACGCGUC	-0.866 ± 0.1	-0.379 ± 0.12
GGAGAGCAAUAUUACGAUGA	-2.47 ± 0.49	
GCGGAGCAAUAUUACGCCUC	-3.43 ± 0.38	-1.06 ± 0.36
AAUGAGCAAUAUUACGUGCG	-2 ± 0.15	-1.99 ± 0.3
